Experimental findings from patent US20070280945A1 (Regeneron, published 2007) are described below.

The target in assay [1] is T1, hIL-6R recombinant protein (plate-coated, Example 5) (human, UniProt P08887 20-358, limits assumed).
T1 construct: also called antigen
T1 sequence: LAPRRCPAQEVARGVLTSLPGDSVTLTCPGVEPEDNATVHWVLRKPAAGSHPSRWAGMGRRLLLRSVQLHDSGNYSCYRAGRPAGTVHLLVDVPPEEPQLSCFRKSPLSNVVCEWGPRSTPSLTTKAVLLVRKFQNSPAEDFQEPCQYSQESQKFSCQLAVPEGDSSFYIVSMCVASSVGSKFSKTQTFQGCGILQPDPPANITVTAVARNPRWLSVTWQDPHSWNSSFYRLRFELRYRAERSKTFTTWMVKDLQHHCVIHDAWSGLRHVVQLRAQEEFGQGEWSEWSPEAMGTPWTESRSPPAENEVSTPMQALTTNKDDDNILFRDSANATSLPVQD
Nature of the assay: SPR (BIAcore) competition on hIL-6R; competitor: control antibody.

Assay [2] has as its target T1, hIL-6R recombinant protein …. The assay is described as follows: competition ELISA on hIL-6R-coated plate presaturated with competitor control antibody; test antibody 50 ng/ml. A general note: An ELISA detects its analyte on a solid surface through an enzyme-linked reagent.
Description: An antibody binding competition immunoassay was performed using as a control humanized antibody to human IL-6R. Briefly, a 96-well immunosorbent plate was coated with 20 ng per well hIL-6R recombinant protein overnight at 4° C. […] After one hour of additional binding, the free antibody was washed away and the plate-bound antibody was detected with HRP-conjugated goat anti-mouse IgG or IgA, polyclonal antibody and the plate was developed using chromatic HRP substrates and absorbance at 450 nm was recorded.
Assay [3] has as its target T2, hIL-6R on hIL-6-responsive human cells (XG-1 myeloma line, HepG2 hepatoma line) (human, UniProt P08887 20-468).
T2 sequence (looked up): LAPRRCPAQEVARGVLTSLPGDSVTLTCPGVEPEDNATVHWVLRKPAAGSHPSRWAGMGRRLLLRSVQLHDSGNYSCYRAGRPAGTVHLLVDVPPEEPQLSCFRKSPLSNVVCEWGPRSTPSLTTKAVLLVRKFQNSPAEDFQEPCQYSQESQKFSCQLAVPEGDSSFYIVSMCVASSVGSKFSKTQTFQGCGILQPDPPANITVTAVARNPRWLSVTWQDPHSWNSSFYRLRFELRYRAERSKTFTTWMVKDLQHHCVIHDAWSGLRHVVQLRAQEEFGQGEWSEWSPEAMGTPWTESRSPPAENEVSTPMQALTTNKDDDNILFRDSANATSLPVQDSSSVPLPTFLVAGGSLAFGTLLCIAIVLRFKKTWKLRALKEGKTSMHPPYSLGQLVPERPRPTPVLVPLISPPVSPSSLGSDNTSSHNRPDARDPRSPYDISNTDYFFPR
Nature of the assay: cell-based or functional assay.

Assay [4] has as its target T3, recombinant hIL-6R protein, monomeric form (human, UniProt P08887 20-358).
T3 construct: also called monomeric hIL-6R; Human IL6R
T3 sequence: T1 sequence
The assay is described as follows: SPR (BIAcore), captured mouse-IgG antibody, monomeric hIL-6R 1.56-12.5 nM.
Excerpt: Briefly, a biosensor chip on which goat anti-mouse Fc polyclonal antibody was immobilized was used to present anti-hIL-6R monoclonal antibodies to a density of about 75 RU. […] The binding of the receptor to the antibody and the dissociation of the bound complex were monitored in real-time. Both association rate constant (ka) and dissociate rate constant (kd) were obtained, and KD calculated (Table 4).
(§1) The binding affinity to monomeric hIL-6R of four antibodies having mouse IgG, human IgG1 or human IgG4 (wild-type and modified) were determined using BIAcore™ as described above except a goat anti-human Fc polyclonal antibody surface was used to capture hIgG antibodies.

The target in assay [5] is T4, hIL-6R-hFc (human, UniProt P08887 20-358).
T4 construct: also called dimeric hIL-6R; Dimer; not shown: human Fc (hFc)
T4 sequence: T1 sequence
Nature of the assay: competition ELISA: antibody premixed with serial dilutions of hIL-6R-hFc, free antibody detected on hIL-6R-hFc-coated plate.

For assay [6], the target named is T2, hIL-6R on hIL-6-responsive human cells …. Nature of the assay: cell-based or functional assay. The source holds these as a separate data set.
The target of assay [7] is T3, recombinant hIL-6R protein, monomeric …. Nature of the assay: SPR (BIAcore), antibody captured on goat anti-mouse Fc, monomeric IL-6R 1.25-40 nM injected. For orientation: In SPR one partner is held on a chip, and binding of the other changes the refractive index at the surface.
Description: (§2) Four antibodies were tested for cross-reactivity to monkey IL-6R recombinant protein using BIAcore™ technology. Briefly, a biosensor chip on which goat anti-mouse Fc polyclonal antibody was immobilized was used to present anti-hIL-6R monoclonal antibodies to a density of about 75 RU. […] The binding of the receptor to the antibody and the dissociation of the bound complex were monitored in real-time.
Assay [8] shares this target. Nature of the assay: Kinexa solution-phase competition immunoassay, monomeric hIL-6R.
Assay [9] shares this target. The assay is described as follows: SPR (BIAcore), antibody captured on anti-mouse IgG surface, monomeric hIL-6R.
Description: (§3) More specifically, the affinity of the antibodies for human IL-6R was measured using a BIAcore® 2000 or BIAcore® 3000. The antibody was captured on an anti-mouse IgG surface and exposed to various concentrations of recombinant hIL-6R protein either in monomeric or dimeric form. Kinetic analysis using BIAevaluation™ software was performed to obtain the association and dissociation rate constants.
Assay [10] concerns the target T4, hIL-6R-hFc. Nature of the assay: SPR (BIAcore): hIL-6R-hFc captured, antibody injected, then 50 nM hIL-6; percent reduction in hIL-6 binding.
In assay [11] the target is T5, Recombinant monkey monomeric IL-6R protein (Macaca fascicularis, extracellular domain) (Macaca fascicularis, UniProt P08887 21-330 (human entry)).
T5 construct: also called Monkey IL6R; monkey IL-6R
T5 chain: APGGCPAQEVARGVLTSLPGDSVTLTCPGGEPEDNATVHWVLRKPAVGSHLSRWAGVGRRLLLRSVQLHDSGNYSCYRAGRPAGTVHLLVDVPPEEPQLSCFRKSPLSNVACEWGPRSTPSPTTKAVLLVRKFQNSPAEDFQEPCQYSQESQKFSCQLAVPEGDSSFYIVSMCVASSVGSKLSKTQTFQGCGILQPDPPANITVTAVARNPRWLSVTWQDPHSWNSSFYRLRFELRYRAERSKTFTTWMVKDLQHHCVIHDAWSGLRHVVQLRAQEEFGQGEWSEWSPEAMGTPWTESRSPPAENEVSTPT
The assay is described as follows: SPR (BIAcore), antibody captured on goat anti-mouse Fc, monomeric monkey IL-6R injected.
Description: as §2

The target in assay [12] is T4, hIL-6R-hFc. Nature of the assay: blocking ELISA: 100 pM hIL-6R-hFc premixed with varied antibody, free hIL-6R-hFc captured on hIL-6-coated plate.
Description: This plate was used to capture free hIL-6R-hFc from antibody sample solutions, and the amount of captured hIL-6R-hFc was quantified according to the standard curve. The sample solutions were composed of a constant amount of hIL-6R-hFc recombinant protein (100 pM) and varying amounts of antibody, either in crude hybridoma condition medium or as purified antibody protein, ranging from 0 to about 50 nM in serial dilutions. The antibody-antigen mixtures were incubated at room temperature for ˜2 hours to allow antibody-antigen binding to reach equilibrium. […] After 1 hour binding, the plate was washed and bound hIL-6R-hFc was detected using HRP-conjugated goat anti-hFc polyclonal antibodies (Jackson Immuno Research), and developed using TMB substrate (BD Pharmigen).
The target in assay [13] is T4, hIL-6R-hFc. The assay is described as follows: SPR (BIAcore), antibody captured on anti-mouse IgG surface, dimeric hIL-6R.
Description: as §3
For assay [14], the target named is T3, recombinant hIL-6R protein, monomeric …. The assay is described as follows: SPR (BIAcore), captured antibody, monomeric hIL-6R.
Description: as §2
The target is the same in assay [15]. The assay is described as follows: SPR (BIAcore), antibody captured on goat anti-human Fc, monomeric hIL-6R 1.56-12.5 nM; modhIgG4 isotype.
Description: as §1
The target is the same in assay [16]. The assay is described as follows: SPR (BIAcore), antibody captured on goat anti-human Fc, monomeric hIL-6R 1.56-12.5 nM.
Description: as §1
Assay [17] has the same target. The assay is described as follows: SPR (BIAcore), captured antibody, monomeric hIL-6R. This is another data set of the same source.
Description: as §3
Assay [18] concerns the target T4, hIL-6R-hFc. The assay is described as follows: SPR (BIAcore), captured antibody, dimeric hIL-6R.
Description: as §3

In general, Kd refers to the equilibrium constant for the complex coming apart. The koff is the rate constant with which the complex falls apart. As a reminder, the kon is the second-order rate constant of association. Broadly, the IC50 is the concentration that inhibits the measured activity by half.

B1: VV1G4-7 (antibody, IgG2a, V domains shown)
VH: QVQLVQSGAEVKEPGASVKVSCKASGYTFTSYDIIWVRQATGQGLEWMGWMNPNSGNTGYTQNLQGRVTLTRNTSITTVYMELSSLSSEDTAVYYCARDYSSHYYGLDVWGQGTTVTVSS
VL: DIQLTQSPSFLSTSIGDRVTITCWASQDISNYLAWYQQKPGKAPKLLIFVASTLQSGVPSRFSGSGSGTEFTLTISSLQPEDFATYYCQQFNSYPLTFGGGTKVEIK
notes: Human variable regions with mouse constant region
Take B1: the “% reduction of binding by control antibody” value is 12% in assay [1] and 3% in assay [2]. In addition, in [3], the “HepG2/STAT3 luciferase assay IC50” value was found to be 578 pM. For the same molecule, the Kd was 225 pM in assay [4]; 240 pM in assay [7]; 197 pM in assay [8]; 225 pM in [9]; 70 pM in assay [13]; 241 pM in [14]. For the same molecule, the koff in assay [4] was 7.66e-05 s⁻¹; in assay [7] it was 6.18e-05 s⁻¹. Further, the kon amounted to 341000 M⁻¹ s⁻¹ in assay [4] and 257000 M⁻¹ s⁻¹ in [7]. The IC50 worked out at 41 pM in [5] and 1100 pM in assay [12]. Moreover, in [6], the “HepG2/Stat3 Luciferase activity IC50” value was found to be 578 pM. Moreover, the “XG-1 cell proliferation Inhibition IC50” value in assay [6] was determined as 1800 pM. In assay [10], the “hIL6/hIL6R Binding Inhibition (%)” value was determined as 34%. Moreover, in assay [11], the binding result is on record as “no binding (tested: 1.25-40 nM)”.

B2: VQ8F11-21 modhIgG4 (antibody, V domains shown)
VH: EVQLVESGGGLVQPGRSLRLSCAASRFTFDDYAMHWVRQAPGKGLEWVSGISWNSGRIGYADSVKGRFTISRDNAENSLFLQMNGLRAEDTALYYCAKGRDSFDIWGQGTMVTVSS
VL: DIQMTQSPSSVSASVGDRVTITCRASQGISSWLAWYQQKPGKAPKLLIYGASSLESGVPSRFSGSGSGTDFTLTISSLQPEDFASYYCQQANSFPYTFGQGTKLEIK
notes: Modified human IgG4 constant region; also called VQ8F11-21 modified human IgG4
Regarding B2, the koff in assay [15] turned out to be 4.7e-05 s⁻¹. The “HepG2/STAT3 luciferase assay IC50” value in assay [3] was 249 pM. In assay [16], the Kd was 53 pM and the kon is 881000 M⁻¹ s⁻¹.

B3: 248982-13-1-E5 (antibody, V domains shown)
VH: QVQLVQSGGDLVQPGRSLRLSCAASGFTFDDYAMHWVRQTPGKGLEWVSGISWNSGAIGYADSVKGRFTISRDNAKNSLYLQMNSLRAEDTALYYCTKEEVGATVDYFYFYGMDVWGQGTTVTVSS
VL: EIVMTQSPATLSLSPGERATLSCWASQSVSNYLAWYQQKPGQAPRLLIYDASNRATGIPARFSGSGSGTDFTLTISSLEPEDFAVYYCQQRSNWPTFGQGTKVEIK
As to B3, the Kd in assay [17] was 987 pM; in [18], 785 pM. The same molecule yielded an IC50 in [5] of 360 pM.
